Results published in paper PMC9046087, “Structural basis of tethered agonism of the adhesion GPCRs ADGRD1 and ADGRF1” (Nature, 2022).

The molecules below were run on ADGRF1 (assay: Cell-surface expression by flow cytometry, ADGRF1). Conditions: ADGRF1 constructs (pF1 Gi part of table), anti-Flag antibody, three independent measurements in duplicate.
Assay type: cell-based, human
Protocol: The wild-type ADGRD1 and ADGRF1 and mutants used in functional studies were constructed into a pTT5 vector with a Flag tag at the N terminus for receptor expression measurement. The basal activity of ADGRD1 and ADGRF1 in mediating Gs signalling was measured by a cAMP accumulation assay using a LANCE Ultra cAMP detection kit (PerkinElmer) following the manufacturer’s instruction. In brief, 2 ml HEK293F cells (Invitrogen; cells were routinely tested for mycoplasma contamination) at a density of 1.2 × 10^6 cells per ml were transiently transfected with 2,000 ng plasmid of the wild-type or mutant receptor and cultured at 37 °C for 48 h with 5% CO2 atmosphere in a shaker shaking at 220 rpm. After collection, the cell-surface expression of the receptors was measured by incubating 10 μl cells with 15 μl monoclonal anti-Flag M2-FITC antibody (Sigma; 1:120 diluted in TBS supplemented with 4% BSA and 20% viability staining solution 7-AAD (Invitrogen)) at 4 °C for 20 min. After incubation, 175 μl TBS buffer was added and the fluorescent signal was measured using a flow cytometry reader (Guava easyCyte HT, Millipore).

Row | Molecule | Cell-surface expression (% of WT)
1 | V585^1.36bA (protein, UniProt Q5T601 20-910, looked up, variant V585A) Adhesion G-protein coupled …: GFLGKNDGIKTKKELIVNKKKHLGPVEEYQLLLQVTYRDSKEKRDLRNFLKLLKPPLLWSHGLIRIIRAKATTDCNSLNGVLQCTCEDSYTWFPPSCLDPQNCYLHTAGALPSCECHLNNLSQSVNFCERTKIWGTFKINERFTNDLLNSSSAIYSKYANGIEIQLKKAYERIQGFESVQVTQFRNGSIVAGYEVVGSSSASELLSAIEHVAEKAKTALHKLFPLEDGSFRVFGKAQCNDIVFGFGSKDDEYTLPCSSGYRGNITAKCESSGWQVIRETCVLSLLEELNKNFSMIVGNATEAAVSSFVQNLSVIIRQNPSTTVGNLASVVSILSNISSLSLASHFRVSNSTMEDVISIADNILNSASVTNWTVLLREEKYASSRLLETLENISTLVPPTALPLNFSRKFIDWKGIPVNKSQLKRGYSYQIKMCPQNTSIPIRGRVLIGSDQFQRSLPETIISMASLTLGNILPVSKNGNAQVNGPVISTVIQNYSINEVFLFFSKIESNLSQPHCVFWDFSHLQWNDAGCHLVNETQDIVTCQCTHLTSFSILMSPFVPSTIFPVAKWITYVGLGISIGSLILCLIIEALFWKQIKKSQTSHTRRICMVNIALSLLIADVWFIVGATVDTTVNPSGVCTAAVFFTHFFYLSLFFWMLMLGILLAYRIILVFHHMAQHLMMAVGFCLGYGCPLIISVITIAVTQPSNTYKRKDVCWLNWSNGSKPLLAFVVPALAIVAVNFVVVLLVLTKLWRPTVGERLSRDDKATIIRVGKSLLILTPLLGLTWGFGIGTIVDSQNLAWHVIFALLNAFQGFFILCFGILLDSKLRQLLFNKLSALSSWKQTEKQNSSDLSAKPKFSKPFNPLQNKGHYAFSHTGDSSDNIMLTQFVSNE | 91 ± 21 % of WT
2 | T589^1.40bA (protein, UniProt Q5T601 20-910, looked up, variant T589A) Adhesion G-protein coupled …: GFLGKNDGIKTKKELIVNKKKHLGPVEEYQLLLQVTYRDSKEKRDLRNFLKLLKPPLLWSHGLIRIIRAKATTDCNSLNGVLQCTCEDSYTWFPPSCLDPQNCYLHTAGALPSCECHLNNLSQSVNFCERTKIWGTFKINERFTNDLLNSSSAIYSKYANGIEIQLKKAYERIQGFESVQVTQFRNGSIVAGYEVVGSSSASELLSAIEHVAEKAKTALHKLFPLEDGSFRVFGKAQCNDIVFGFGSKDDEYTLPCSSGYRGNITAKCESSGWQVIRETCVLSLLEELNKNFSMIVGNATEAAVSSFVQNLSVIIRQNPSTTVGNLASVVSILSNISSLSLASHFRVSNSTMEDVISIADNILNSASVTNWTVLLREEKYASSRLLETLENISTLVPPTALPLNFSRKFIDWKGIPVNKSQLKRGYSYQIKMCPQNTSIPIRGRVLIGSDQFQRSLPETIISMASLTLGNILPVSKNGNAQVNGPVISTVIQNYSINEVFLFFSKIESNLSQPHCVFWDFSHLQWNDAGCHLVNETQDIVTCQCTHLTSFSILMSPFVPSTIFPVVKWIAYVGLGISIGSLILCLIIEALFWKQIKKSQTSHTRRICMVNIALSLLIADVWFIVGATVDTTVNPSGVCTAAVFFTHFFYLSLFFWMLMLGILLAYRIILVFHHMAQHLMMAVGFCLGYGCPLIISVITIAVTQPSNTYKRKDVCWLNWSNGSKPLLAFVVPALAIVAVNFVVVLLVLTKLWRPTVGERLSRDDKATIIRVGKSLLILTPLLGLTWGFGIGTIVDSQNLAWHVIFALLNAFQGFFILCFGILLDSKLRQLLFNKLSALSSWKQTEKQNSSDLSAKPKFSKPFNPLQNKGHYAFSHTGDSSDNIMLTQFVSNE | 83 ± 3 % of WT
3 | L593^1.47bA (protein, UniProt Q5T601 20-910, looked up, variant L593A) Adhesion G-protein coupled …: GFLGKNDGIKTKKELIVNKKKHLGPVEEYQLLLQVTYRDSKEKRDLRNFLKLLKPPLLWSHGLIRIIRAKATTDCNSLNGVLQCTCEDSYTWFPPSCLDPQNCYLHTAGALPSCECHLNNLSQSVNFCERTKIWGTFKINERFTNDLLNSSSAIYSKYANGIEIQLKKAYERIQGFESVQVTQFRNGSIVAGYEVVGSSSASELLSAIEHVAEKAKTALHKLFPLEDGSFRVFGKAQCNDIVFGFGSKDDEYTLPCSSGYRGNITAKCESSGWQVIRETCVLSLLEELNKNFSMIVGNATEAAVSSFVQNLSVIIRQNPSTTVGNLASVVSILSNISSLSLASHFRVSNSTMEDVISIADNILNSASVTNWTVLLREEKYASSRLLETLENISTLVPPTALPLNFSRKFIDWKGIPVNKSQLKRGYSYQIKMCPQNTSIPIRGRVLIGSDQFQRSLPETIISMASLTLGNILPVSKNGNAQVNGPVISTVIQNYSINEVFLFFSKIESNLSQPHCVFWDFSHLQWNDAGCHLVNETQDIVTCQCTHLTSFSILMSPFVPSTIFPVVKWITYVGAGISIGSLILCLIIEALFWKQIKKSQTSHTRRICMVNIALSLLIADVWFIVGATVDTTVNPSGVCTAAVFFTHFFYLSLFFWMLMLGILLAYRIILVFHHMAQHLMMAVGFCLGYGCPLIISVITIAVTQPSNTYKRKDVCWLNWSNGSKPLLAFVVPALAIVAVNFVVVLLVLTKLWRPTVGERLSRDDKATIIRVGKSLLILTPLLGLTWGFGIGTIVDSQNLAWHVIFALLNAFQGFFILCFGILLDSKLRQLLFNKLSALSSWKQTEKQNSSDLSAKPKFSKPFNPLQNKGHYAFSHTGDSSDNIMLTQFVSNE | 90 ± 6 % of WT
4 | F641^2.64bA (protein, UniProt Q5T601 20-910, looked up, variant F641A) Adhesion G-protein coupled …: GFLGKNDGIKTKKELIVNKKKHLGPVEEYQLLLQVTYRDSKEKRDLRNFLKLLKPPLLWSHGLIRIIRAKATTDCNSLNGVLQCTCEDSYTWFPPSCLDPQNCYLHTAGALPSCECHLNNLSQSVNFCERTKIWGTFKINERFTNDLLNSSSAIYSKYANGIEIQLKKAYERIQGFESVQVTQFRNGSIVAGYEVVGSSSASELLSAIEHVAEKAKTALHKLFPLEDGSFRVFGKAQCNDIVFGFGSKDDEYTLPCSSGYRGNITAKCESSGWQVIRETCVLSLLEELNKNFSMIVGNATEAAVSSFVQNLSVIIRQNPSTTVGNLASVVSILSNISSLSLASHFRVSNSTMEDVISIADNILNSASVTNWTVLLREEKYASSRLLETLENISTLVPPTALPLNFSRKFIDWKGIPVNKSQLKRGYSYQIKMCPQNTSIPIRGRVLIGSDQFQRSLPETIISMASLTLGNILPVSKNGNAQVNGPVISTVIQNYSINEVFLFFSKIESNLSQPHCVFWDFSHLQWNDAGCHLVNETQDIVTCQCTHLTSFSILMSPFVPSTIFPVVKWITYVGLGISIGSLILCLIIEALFWKQIKKSQTSHTRRICMVNIALSLLIADVWAIVGATVDTTVNPSGVCTAAVFFTHFFYLSLFFWMLMLGILLAYRIILVFHHMAQHLMMAVGFCLGYGCPLIISVITIAVTQPSNTYKRKDVCWLNWSNGSKPLLAFVVPALAIVAVNFVVVLLVLTKLWRPTVGERLSRDDKATIIRVGKSLLILTPLLGLTWGFGIGTIVDSQNLAWHVIFALLNAFQGFFILCFGILLDSKLRQLLFNKLSALSSWKQTEKQNSSDLSAKPKFSKPFNPLQNKGHYAFSHTGDSSDNIMLTQFVSNE | 82 ± 19 % of WT
5 | Y668^3.40bA (protein, UniProt Q5T601 20-910, looked up, variant Y668A) Adhesion G-protein coupled …: GFLGKNDGIKTKKELIVNKKKHLGPVEEYQLLLQVTYRDSKEKRDLRNFLKLLKPPLLWSHGLIRIIRAKATTDCNSLNGVLQCTCEDSYTWFPPSCLDPQNCYLHTAGALPSCECHLNNLSQSVNFCERTKIWGTFKINERFTNDLLNSSSAIYSKYANGIEIQLKKAYERIQGFESVQVTQFRNGSIVAGYEVVGSSSASELLSAIEHVAEKAKTALHKLFPLEDGSFRVFGKAQCNDIVFGFGSKDDEYTLPCSSGYRGNITAKCESSGWQVIRETCVLSLLEELNKNFSMIVGNATEAAVSSFVQNLSVIIRQNPSTTVGNLASVVSILSNISSLSLASHFRVSNSTMEDVISIADNILNSASVTNWTVLLREEKYASSRLLETLENISTLVPPTALPLNFSRKFIDWKGIPVNKSQLKRGYSYQIKMCPQNTSIPIRGRVLIGSDQFQRSLPETIISMASLTLGNILPVSKNGNAQVNGPVISTVIQNYSINEVFLFFSKIESNLSQPHCVFWDFSHLQWNDAGCHLVNETQDIVTCQCTHLTSFSILMSPFVPSTIFPVVKWITYVGLGISIGSLILCLIIEALFWKQIKKSQTSHTRRICMVNIALSLLIADVWFIVGATVDTTVNPSGVCTAAVFFTHFFALSLFFWMLMLGILLAYRIILVFHHMAQHLMMAVGFCLGYGCPLIISVITIAVTQPSNTYKRKDVCWLNWSNGSKPLLAFVVPALAIVAVNFVVVLLVLTKLWRPTVGERLSRDDKATIIRVGKSLLILTPLLGLTWGFGIGTIVDSQNLAWHVIFALLNAFQGFFILCFGILLDSKLRQLLFNKLSALSSWKQTEKQNSSDLSAKPKFSKPFNPLQNKGHYAFSHTGDSSDNIMLTQFVSNE | 67 ± 1 % of WT
6 | W734^ECL2A (protein, UniProt Q5T601 20-910, looked up, variant W734A) Adhesion G-protein coupled …: GFLGKNDGIKTKKELIVNKKKHLGPVEEYQLLLQVTYRDSKEKRDLRNFLKLLKPPLLWSHGLIRIIRAKATTDCNSLNGVLQCTCEDSYTWFPPSCLDPQNCYLHTAGALPSCECHLNNLSQSVNFCERTKIWGTFKINERFTNDLLNSSSAIYSKYANGIEIQLKKAYERIQGFESVQVTQFRNGSIVAGYEVVGSSSASELLSAIEHVAEKAKTALHKLFPLEDGSFRVFGKAQCNDIVFGFGSKDDEYTLPCSSGYRGNITAKCESSGWQVIRETCVLSLLEELNKNFSMIVGNATEAAVSSFVQNLSVIIRQNPSTTVGNLASVVSILSNISSLSLASHFRVSNSTMEDVISIADNILNSASVTNWTVLLREEKYASSRLLETLENISTLVPPTALPLNFSRKFIDWKGIPVNKSQLKRGYSYQIKMCPQNTSIPIRGRVLIGSDQFQRSLPETIISMASLTLGNILPVSKNGNAQVNGPVISTVIQNYSINEVFLFFSKIESNLSQPHCVFWDFSHLQWNDAGCHLVNETQDIVTCQCTHLTSFSILMSPFVPSTIFPVVKWITYVGLGISIGSLILCLIIEALFWKQIKKSQTSHTRRICMVNIALSLLIADVWFIVGATVDTTVNPSGVCTAAVFFTHFFYLSLFFWMLMLGILLAYRIILVFHHMAQHLMMAVGFCLGYGCPLIISVITIAVTQPSNTYKRKDVCALNWSNGSKPLLAFVVPALAIVAVNFVVVLLVLTKLWRPTVGERLSRDDKATIIRVGKSLLILTPLLGLTWGFGIGTIVDSQNLAWHVIFALLNAFQGFFILCFGILLDSKLRQLLFNKLSALSSWKQTEKQNSSDLSAKPKFSKPFNPLQNKGHYAFSHTGDSSDNIMLTQFVSNE | 87 ± 1 % of WT
